Experimental data: patent publication US20190256582A1
Where two headings read alike, the source gives them in different places.

Tests used:
[1] = biological target: T1, panel of four distinct ZIKV strains (H/PF/2013; MR766, MRS-OPY and PV10552); assay: cell-based or functional assay
[2] = biological target: T1, panel of four distinct ZIKV strains …; assay: cell-based or functional assay; remark: listed apart in the source

B1: ZKA190 (antibody, V domains shown)
VH: QVQLVESGGGVVQPGRSLRLSCAASGFTFSKYGMHWVRQAPGKGLEWVAVISYEGSNKYYADSVKGRFTISRDNSKNTLYLQMNSLRAEDTAVYYCAKSGTQYYDTTGYEYRGLEYFGYWGQGTLVTVSS
VL: EIVLTQSPGTLSLSPGERATLSCRASQSVSSSYLAWYQQKRGQAPRLLIYDASSRATGIPDRFSGSGSGTDFTLTISRLEPEDFAVYYCQQYGRSRWTFGQGTKVEIK
In the case of B1, the ZIKV neutralization IC50 (four strains, Vero cells, flow cytometry) [1] is reported as 0.6 to 8 ng/mL and the ZIKV neutralization IC50 (four strains, Vero cells, flow cytometry) [2] is reported as 0.004 to 0.05 nM.
